Laboratory results reported in patent US20260139057A1 (University of California, published 2026).
Positions count from the first letter of the chain named.

Assays:
[1] = biological target: integrin αvβ6 ectodomain (immobilized) (human, UniProt P06756 31-992; P18564 22-709)
[2] = biological target: T1, recombinant human integrin αvβ8 ectodomain (human, UniProt P06756 31-992; P26012 43-681); test: cell-based or functional assay
[3] = biological target: T2, human integrin αvβ8 on transfected cells (CHO cells stably transfected; HEK 293 cells stably expressing αvβ8) (human, UniProt P06756 31-1048; P26012 43-769); test: flow cytometry on unfixed CHO cells expressing human αvβ8, antibody titrated, hyperbolic least-squares fit (m3 = KD); curves on D00025 [Cont.]
T2 construct: whole, on cells; also called CHO αvβ8 cells; αvβ8 expressing CHO cells
Description: (§1) FIG. 17: Characterization of cell surface binding of humanized affinity optimized anti-αvβ8 antibodies. The cell surface binding affinities of H4C8, H4G9, H4C10, H4G8 compared to HuC6D4F12 expressed as IgG4 (S228P to prevent arm exchange, R409K and L445P to reduce aggregation and to promote stability). […] Cell surface affinity was determined using the least-squares fit model based on the hyperbolic equation y=m1+m2*m0/(m3+m0), where y=MFI at different avb8 concentrations; m0=αvβ8 concentration; m1=MFI with no αvβ8; m2=MFI at saturation; and m3=KD.
(§2) FIG. 18: Binding characteristics of H4C8 of formalin fixed αvβ8 compared to HuC6D4F12 or ADWA11 2.4 (from Pat no. US2020/0079855 A1). CHO αvβ8 expressing cells were fixed in 2% buffered formalin in PBS for 15 min at RT and then stained at the indicated concentrations as described in FIG. 17. The binding affinities to unfixed or formalin fixed cells is shown. Cell surface affinity was determined using the least-squares fit model based on the hyperbolic equation y=m1+m2*m0/(m3+m0), where y=MFI at different αvβ8 concentrations; m0=αvβ8 concentration; m1=MFI with no αvβ8; m2=MFI at saturation; and m3=KD.

[4] = biological target: T2, human integrin αvβ8 on transfected …; test: flow cytometry on CHO cells expressing human αvβ8 fixed in 2% buffered formalin for 15 min, antibody titrated, hyperbolic least-squares fit (m3 = KD); curves on D00025 [Cont.]
Description: as §1, §2

[5] = biological target: T1, recombinant human integrin αvβ8 …; test: cell-based or functional assay; remark: listed apart in the source
[6] = biological target: T1, recombinant human integrin αvβ8 …; test: cell-based or functional assay; remark: listed apart in the source
[7] = biological target: T1, recombinant human integrin αvβ8 …; test: cell-based or functional assay; remark: listed apart in the source
[8] = biological target: T1, recombinant human integrin αvβ8 …; test: cell-based or functional assay; remark: listed apart in the source
[9] = biological target: T1, recombinant human integrin αvβ8 …; test: yeast-displayed scFv titrated with αvβ8 ectodomain, flow cytometry, hyperbolic fit
Description: After induction and screening of the pooled transformants for scFV expression using anti-V5 (clone SV5), the avb8 ectodomain was incubated with the yeast pool, washed and scFV which bound to αvβ8 were detected using anti-human αv (clone 8β8). After multiple rounds of selection by sorting yeast stained under conditions of increasing stringency (Low Ag concentration, short Kon and long Koff), individual clones were isolated, sequenced and tested for binding affinity. Shown are the sequences of VH and VL pairs enriched in the library. The binding affinities of representative yeast clones was determined using a least-squares fit model based on the hyperbolic equation y=m1+m2*m0/(m3+m0), where y=MFI at different αvβ8 concentrations; m0=αvβ8 concentration; m1=MFI with no αvβ8; m2=MFI at saturation; and m3=KD. […]
We then created a scFV yeast display library (Library 3) with degenerate positions coding for novel amino acids (i.e. not in germline human or mouse Ig sequence databases), back mutations to mouse from clone H1.1, as well as final humanization of Fr4 VH and VL based on the human germline (SEQ ID NO: 29, 30 and 32). […] After induction and screening of the pooled transformants for scFV expression using anti-V5 (clone SV5), the αvβ8 ectodomain was incubated with the yeast pool, washed and scFV which bound to αvβ8 were detected using anti-human αv (clone 8β8). […]

[10] = biological target: T1, recombinant human integrin αvβ8 …; test: MFI against concentration, fit y = m1 + m2*M0/(m3+M0), m3 = KD; paragraph 50 and paragraph 227 give these KD values for the yeast scFv with soluble αvβ8, the legend of FIG. 17 speaks of IgG4 on CHO αvβ8 cells

T1 sequence (P06756 31-992 limits assumed, chain 1 of 2): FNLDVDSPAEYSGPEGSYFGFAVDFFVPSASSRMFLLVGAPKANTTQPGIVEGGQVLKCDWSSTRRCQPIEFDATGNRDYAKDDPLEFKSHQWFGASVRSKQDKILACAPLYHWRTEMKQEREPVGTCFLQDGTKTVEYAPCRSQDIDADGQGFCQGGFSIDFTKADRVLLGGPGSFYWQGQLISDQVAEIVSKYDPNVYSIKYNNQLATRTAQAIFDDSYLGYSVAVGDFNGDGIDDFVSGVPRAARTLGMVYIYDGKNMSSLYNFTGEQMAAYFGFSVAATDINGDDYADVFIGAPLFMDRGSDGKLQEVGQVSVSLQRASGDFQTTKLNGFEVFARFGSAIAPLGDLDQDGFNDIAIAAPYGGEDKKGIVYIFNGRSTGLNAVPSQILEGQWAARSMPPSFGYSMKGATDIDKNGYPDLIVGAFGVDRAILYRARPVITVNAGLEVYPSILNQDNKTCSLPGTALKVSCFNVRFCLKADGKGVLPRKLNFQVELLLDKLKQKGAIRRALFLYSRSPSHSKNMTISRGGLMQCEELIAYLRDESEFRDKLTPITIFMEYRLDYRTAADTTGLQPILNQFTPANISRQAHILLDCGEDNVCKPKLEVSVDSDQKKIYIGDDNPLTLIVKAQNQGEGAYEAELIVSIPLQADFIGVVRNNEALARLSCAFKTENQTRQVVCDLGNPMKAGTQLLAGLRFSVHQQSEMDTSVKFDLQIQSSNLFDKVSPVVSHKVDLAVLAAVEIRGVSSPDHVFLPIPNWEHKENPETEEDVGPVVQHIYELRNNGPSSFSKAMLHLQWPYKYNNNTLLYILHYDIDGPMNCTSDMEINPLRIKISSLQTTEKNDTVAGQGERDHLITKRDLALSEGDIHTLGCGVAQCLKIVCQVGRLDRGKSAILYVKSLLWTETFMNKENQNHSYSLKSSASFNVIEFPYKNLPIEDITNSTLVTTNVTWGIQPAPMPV
T1 sequence (P26012 43-681 limits assumed, chain 2 of 2): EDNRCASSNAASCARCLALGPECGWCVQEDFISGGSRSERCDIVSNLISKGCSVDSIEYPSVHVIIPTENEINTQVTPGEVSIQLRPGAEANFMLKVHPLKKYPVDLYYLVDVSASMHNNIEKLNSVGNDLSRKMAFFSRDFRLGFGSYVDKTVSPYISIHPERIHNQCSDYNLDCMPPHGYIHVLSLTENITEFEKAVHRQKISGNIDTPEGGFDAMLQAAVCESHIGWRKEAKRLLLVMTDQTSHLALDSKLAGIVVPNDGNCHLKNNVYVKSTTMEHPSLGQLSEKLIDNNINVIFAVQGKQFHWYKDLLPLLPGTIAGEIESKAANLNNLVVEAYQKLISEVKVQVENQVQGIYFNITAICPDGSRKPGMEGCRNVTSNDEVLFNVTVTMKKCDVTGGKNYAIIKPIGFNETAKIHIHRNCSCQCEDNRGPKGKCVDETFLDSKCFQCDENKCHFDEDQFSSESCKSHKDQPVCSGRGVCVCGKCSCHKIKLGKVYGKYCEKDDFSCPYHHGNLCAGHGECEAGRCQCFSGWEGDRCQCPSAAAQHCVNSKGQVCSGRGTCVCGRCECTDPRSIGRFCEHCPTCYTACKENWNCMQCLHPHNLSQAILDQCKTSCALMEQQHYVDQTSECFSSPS
T2 sequence (P06756 31-1048, chain 1 of 2): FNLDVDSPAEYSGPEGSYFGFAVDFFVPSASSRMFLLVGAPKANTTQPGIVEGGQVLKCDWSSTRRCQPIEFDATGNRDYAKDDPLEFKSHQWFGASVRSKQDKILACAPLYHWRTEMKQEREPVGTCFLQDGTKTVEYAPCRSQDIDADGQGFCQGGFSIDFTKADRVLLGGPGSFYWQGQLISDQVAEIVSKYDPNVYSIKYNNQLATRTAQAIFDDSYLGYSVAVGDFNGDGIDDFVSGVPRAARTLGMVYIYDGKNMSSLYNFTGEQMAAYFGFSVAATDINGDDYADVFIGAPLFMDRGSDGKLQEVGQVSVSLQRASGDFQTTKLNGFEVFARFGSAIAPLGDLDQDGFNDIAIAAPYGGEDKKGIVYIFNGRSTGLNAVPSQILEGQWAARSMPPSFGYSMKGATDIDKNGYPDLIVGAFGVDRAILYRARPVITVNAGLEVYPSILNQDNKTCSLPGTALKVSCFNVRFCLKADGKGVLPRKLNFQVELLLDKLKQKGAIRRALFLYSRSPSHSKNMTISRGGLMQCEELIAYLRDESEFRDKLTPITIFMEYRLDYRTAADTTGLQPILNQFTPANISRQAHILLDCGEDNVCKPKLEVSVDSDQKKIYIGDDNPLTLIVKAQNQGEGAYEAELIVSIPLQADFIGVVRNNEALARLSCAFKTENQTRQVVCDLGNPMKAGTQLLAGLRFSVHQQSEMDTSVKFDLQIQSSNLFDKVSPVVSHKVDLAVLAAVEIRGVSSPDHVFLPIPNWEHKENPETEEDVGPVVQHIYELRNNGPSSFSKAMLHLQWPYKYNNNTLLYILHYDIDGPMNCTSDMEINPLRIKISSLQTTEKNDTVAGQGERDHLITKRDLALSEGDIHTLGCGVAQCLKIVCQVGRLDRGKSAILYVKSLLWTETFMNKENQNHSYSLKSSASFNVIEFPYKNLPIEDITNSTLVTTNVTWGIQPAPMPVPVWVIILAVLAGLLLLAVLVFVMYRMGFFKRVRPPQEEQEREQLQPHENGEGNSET
T2 sequence (P26012 43-769, chain 2 of 2): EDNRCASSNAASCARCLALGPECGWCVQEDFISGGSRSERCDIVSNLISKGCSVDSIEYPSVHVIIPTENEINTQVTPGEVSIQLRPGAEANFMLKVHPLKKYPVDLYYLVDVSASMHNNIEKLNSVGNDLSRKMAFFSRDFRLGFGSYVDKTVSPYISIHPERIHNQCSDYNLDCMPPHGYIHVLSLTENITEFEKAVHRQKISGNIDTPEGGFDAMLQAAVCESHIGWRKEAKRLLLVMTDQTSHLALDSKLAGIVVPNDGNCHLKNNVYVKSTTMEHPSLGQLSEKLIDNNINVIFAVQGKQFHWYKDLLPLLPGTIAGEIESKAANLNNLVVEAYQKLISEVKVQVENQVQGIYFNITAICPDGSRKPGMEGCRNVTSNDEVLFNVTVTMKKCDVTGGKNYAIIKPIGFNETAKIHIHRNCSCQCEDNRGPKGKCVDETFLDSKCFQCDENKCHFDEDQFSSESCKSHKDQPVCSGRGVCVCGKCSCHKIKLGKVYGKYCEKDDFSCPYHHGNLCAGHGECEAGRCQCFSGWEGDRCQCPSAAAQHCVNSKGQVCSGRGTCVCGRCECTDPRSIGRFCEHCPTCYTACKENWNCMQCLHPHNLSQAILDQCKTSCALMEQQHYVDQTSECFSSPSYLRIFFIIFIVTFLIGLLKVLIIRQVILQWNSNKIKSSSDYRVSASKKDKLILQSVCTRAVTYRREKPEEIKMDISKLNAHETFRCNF
Chain of integrin αvβ6 ectodomain (immobilized) (P06756 31-992, chain 1 of 2): as the sequence (P06756 31-992 limits assumed, chain 1 of 2) above
Chain of integrin αvβ6 ectodomain (immobilized) (P18564 22-709, chain 2 of 2): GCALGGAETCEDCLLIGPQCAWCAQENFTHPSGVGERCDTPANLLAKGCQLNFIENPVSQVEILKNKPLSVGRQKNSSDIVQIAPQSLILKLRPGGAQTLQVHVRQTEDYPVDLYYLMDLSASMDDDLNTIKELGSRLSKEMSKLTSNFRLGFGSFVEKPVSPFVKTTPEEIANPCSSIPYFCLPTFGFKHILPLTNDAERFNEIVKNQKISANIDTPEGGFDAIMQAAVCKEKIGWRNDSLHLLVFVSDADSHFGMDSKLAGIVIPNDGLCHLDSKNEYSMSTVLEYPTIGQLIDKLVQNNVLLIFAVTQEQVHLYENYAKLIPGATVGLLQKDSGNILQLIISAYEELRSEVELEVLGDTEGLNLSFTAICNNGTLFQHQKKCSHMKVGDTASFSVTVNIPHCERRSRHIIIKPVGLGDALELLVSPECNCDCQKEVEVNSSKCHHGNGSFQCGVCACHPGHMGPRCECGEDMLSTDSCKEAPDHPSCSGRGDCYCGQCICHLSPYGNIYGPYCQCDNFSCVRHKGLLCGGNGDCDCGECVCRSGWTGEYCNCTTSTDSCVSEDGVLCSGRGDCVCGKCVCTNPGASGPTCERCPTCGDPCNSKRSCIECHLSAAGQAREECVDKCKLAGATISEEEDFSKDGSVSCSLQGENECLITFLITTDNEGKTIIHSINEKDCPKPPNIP

In the case of 3G9 (anti-β6), mouse IgG2a (antibody), the ED50 of the inhibition of αvβ6-mediated TGF-β activation (immobilized human αvβ6, TMLC GARP/L-TGF-β reporter cells) [1] is reported as 0.22 µg/mL.

B1: ADWA11 2.4 antibody (from US2020/0079855 A1) (antibody, V domains shown)
VH: EVQLVESGGGLVQPGGSLRLSCAASGFNIKDYYMNWVRQAPGKGLEWVGWIDPDQGNTIYEPKFQGRFTISADTSKNSAYLQMNSLRAEDTAVYYCARRLLMDYWGQGTLVTVSS
VL: DIQMTQSPSSLSASVGDRVTITCRSTKSLSHFNGNTYLFWYQQKPGKAPKRLIYYMSSLASGVPSRFSGSGSGTDFTLTISSLQPEDFATYYCQQSLEYPFTFGGGTKVEIKR
For B1, the “EC50 of the inhibition of αvβ8-mediated TGF-β activation (TMLC GARP/TGF-β luciferase reporter cells on αvβ8-coated wells)” value [2] was 274 µg/mL, the Kd [3] was 20 nM and the Kd [4] was 56 nM.

B2: HuF12 IgG2a (antibody)
heavy: QIQLVQSGAEVKKPGASVKISCKASGYTFTKYSMHWVRQAPGQGLEWVARINTETGEPTFADDFRGRFTVTLDTSTSTAYLEIRSLRSDDTAVYFCAIFYYGRDTWGQGTTLTVSSASTKGPSVFPLAPSSKSTSGGTAALGCLVKDYFPEPVTVSWNSGALTSGVHTFPAVLQSSGLYSLSSVVTVPSSSLGTQTYICNVNHKPSNTKVDKKIVPRDCGCKPCICTVPEVSSVFIFPPKPKDVLTITLTPKVTCVVVDISKDDPEVQFSWFVDDVEVHTAQTQPREEQFNSTFRSVSELPIMHQDWLNGKEFKCRVNSAAFPAPIEKTISKTKGRPKAPQVYTIPPPKEQMAKDKVSLTCMITDFFPEDITVEWQWNGQPAENYKNTQPIMDTDGSYFVYSKLNVQKSNWEAGNTFTCSVLHEGLHNHHTEKSLSHSPGK
VL: EIVMTQSPATLSVSPGERVTMSCKSSQSLLHSRSRKNYLAWYQQKPGQAPRLLIYWASTRESGVPARFSGSGSGTEFTLTISSVQSEDFAVYYCKQSYNLLSFGQGTVLEIKR
For B2, the “IC50 (read off the curve)” value [5] was roughly 0.3 µg/mL, the “EC50 of inhibition of αvβ8-mediated TGF-β activation” value [6] was 200 nM and the “ED50 of the inhibition of αvβ8-mediated TGF-β activation (immobilized αvβ8, TMLC GARP/L-TGF-β reporter cells)” value [7] was 0.02 µg/mL. The “IC50 of the inhibition of TGF-β activation (TMLC GARP/TGF-β1 reporter cells on αvβ8-coated wells)” value [8] was 0.0922 µg/mL.

B3: HuF12 scFv displayed on yeast (scFv, V domains shown)
VH: QIQLVQSGAEVKKPGASVKISCKASGYTFTKYSMHWVRQAPGQGLEWVARINTETGEPTFADDFRGRFTVTLDTSTSTAYLEIRSLRSDDTAVYFCAIFYYGRDTWGQGTTLTVSS
VL: B2 VL
notes: scFv in vector pYD4 on yeast; also called HuC6D4F12 scFV
B3 showed a Kd [9] of 6.7 nM and a Kd [10] of 6.05 nM.

B4: H4C8 scFv displayed on yeast (scFv, V domains shown)
VH: QVQLVQSGAEVKKPGASVKVSCKVSGYTLTRQSMHWVRQAPGKGLEWMGRINTETGEPTYAQKFQGRVTMTQDTSTDTAYMELSSLRSEDTAVYFCAIFYYGRDTWGQGTTVTVSS
VL: B2 VL with M21L, K24R, S62T, V84L, V108K, L109V
notes: scFv in pYD4 on yeast
With B4 the Kd [9] was 3.8 nM and the Kd [10] was 3.76 nM.
